Data as given in patent publication US20080113383A1 (FIBRO GEN, published 2008).
Where no end group is shown, it is not given here.

How the values were obtained:
Assay in all cases: cell-based or functional assay
EGLN1 = molecular target: EGLN1
EGLN2 = molecular target: EGLN2
EGLN3 = molecular target: EGLN3

| Binder | Activity (%)* (EGLN1) | Activity (%)* (EGLN2) | Activity (%)* (EGLN3) |
| --- | --- | --- | --- |
| DTDLDAEASAPYIPADDDFQ [DTDLDAEASApYIPADDDFQ] | 10.5% | 8.82% | 4.11% |
| DTDLDLEAGAPYIPADDDFQ [DTDLDLEAGApYIPADDDFQ] | 11.3% | 9.84% | 12.2% |
| DTDLDVEAVAPYIPADDDFQ (not fully specified; printed as DTDLDVEAVApYIPADDDFQ) [DTDLDVEAVApYIPADDDFQ] | 22.8% | 16.6% | 49% |
| DTDLDTEAYAPYIPADDDFQ (not fully specified; printed as DTDLDTEAYApYIPADDDFQ) [DTDLDTEAYApYIPADDDFQ] | 24.1% | 25.6% | 36% |
| DTDLDAEAIAPYIPADDDFQ [DTDLDAEAIApYIPADDDFQ] | 31.3% | 24% | 25.7% |
| DTDLDLEAQAPYIPADDDFQ [DTDLDLEAQApYIPADDDFQ] | 23.4% | 19.1% | 39.4% |
| DTDLDIEAVAPYIPADDDFQ [DTDLDIEAVApYIPADDDFQ] | 23.9% | 23.8% | 61.3% |
| DTDLDTEATAPYIPADDDFQ (not fully specified; printed as DTDLDTEATApYIPADDDFQ) [DTDLDTEATApYIPADDDFQ] | 21.9% | 24.8% | 16.5% |
| DTDLDTEAIAPYIPADDDFQ (not fully specified; printed as DTDLDTEAIApYIPADDDFQ) [DTDLDTEAIApYIPADDDFQ] | 23.7% | 25.3% | 19% |
| DTDLDNEALAPYIPADDDFQ (not fully specified; printed as DTDLDNEALApYIPADDDFQ) [DTDLDNEALApYIPADDDFQ] | 27.1% | 21.4% | 57.6% |
| DTDLDLEMLKPYIPMDDDFQ (not fully specified; printed as DTDLDLEMLKpYIPMDDDFQ) [DTDLDLEMLKpYIPMDDDFQ] | 68.7% | 57.7% | 74.5% |
| DTDLDYEALAPYIPADDDFQ (not fully specified; printed as DTDLDYEALApYIPADDDFQ) [DTDLDYEALApYIPADDDFQ] | 94.2% | 108% | 136% |
| DTDLDTEAFAPYIPADDDFQ (not fully specified; printed as DTDLDTEAFApYIPADDDFQ) [DTDLDTEAFApYIPADDDFQ] | 22.2% | 28.5% | 24.1% |
| DTDLDLEASAPYIPADDDFQ [DTDLDLEASApYIPADDDFQ] | 29.6% | 31.6% | 25.1% |
| DTDLDTEAVAPYIPADDDFQ (not fully specified; printed as DTDLDTEAVApYIPADDDFQ) [DTDLDTEAVApYIPADDDFQ] | 16.6% | 19% | 26.8% |
| DTDLDHEALAPYIPADDDFQ [DTDLDHEALApYIPADDDFQ] | 23.4% | 21.5% | 55.8% |
| DTDLDLEALAPYIPADDDFQ [DTDLDLEALApYIPADDDFQ] | 102% | 102% | 119% |
| DTDLDIEANAPYIPADDDFQ [DTDLDIEANApYIPADDDFQ] | 33.2% | 34.4% | 30.4% |
| DTDLDVEALAPYIPADDDFQ (not fully specified; printed as DTDLDVEALApYIPADDDFQ) [DTDLDVEALApYIPADDDFQ] | 31.5% | 29% | 115% |
| DTDLDLEAEAPYIPADDDFQ [DTDLDLEAEApYIPADDDFQ] | 9.97% | 13.2% | 16.9% |
| DTDLDREALAPYIPADDDFQ (not fully specified; printed as DTDLDREALApYIPADDDFQ) [DTDLDREALApYIPADDDFQ] | 19.9% | 15.7% | 49.8% |
| DTDLDVEATAPYIPADDDFQ (not fully specified; printed as DTDLDVEATApYIPADDDFQ) [DTDLDVEATApYIPADDDFQ] | 20.4% | 13.6% | 24% |
| DTDLDAEATAPYIPADDDFQ [DTDLDAEATApYIPADDDFQ] | 20.8% | 19.4% | 18.5% |
| DTDLDLEAIAPYIPADDDFQ [DTDLDLEAIApYIPADDDFQ] | 88% | 89% | 104% |
| DTDLDLEMLQPYIPMDDDFQ (not fully specified; printed as DTDLDLEMLQpYIPMDDDFQ) [DTDLDLEMLQpYIPMDDDFQ] | 45.1% | 38.1% | 59.9% |
| DTDLDAEAAAPYIPADDDFQ [DTDLDAEAAApYIPADDDFQ] | 12.6% | 8.63% | 7.18% |
